Substrate in the data set: N[C@@H](CCC(=O)N[C@H](CSc1ccc([N+](=O)[O-])cc1[N+](=O)[O-])C(=O)NCC(=O)O)C(=O)O
Description: TP_TRANSPORTER: uptake in membrane vesicle from Mrp2-expressing NIH/3T3 cell. The data set is classed as functional, cell membranes, NIH3T3.

In general, Km refers to the concentration of substrate that gives half-maximal velocity.

B1: ATP-binding cassette sub-family C member 2 (Rattus norvegicus) (protein)
chain: MDKFCNSTFWDLSLLESPEADLPLCFEQTVLVWIPLGFLWLLAPWQLYSVYRSRTKRSSITKFYLAKQVFVVFLLILAAIDLSLALTEDTGQATVPPVRYTNPILYLCTWLLVLAVQHSRQWCVRKNSWFLSLFWILSVLCGVFQFQTLIRALLKDSKSNMAYSYLFFVSYGFQIVLLILTAFSGPSDSTQTPSVTASFLSSITFSWYDRTVLKGYKHPLTLEDVWDIDEGFKTRSVTSKFEAAMTKDLQKARQAFQRRLQKSQRKPEATLHGLNKKQSQSQDVLVLEEAKKKSEKTTKDYPKSWLIKSLFKTFHVVILKSFILKLIHDLLVFLNPQLLKLLIGFVKSSNSYVWFGYICAILMFAVTLIQSFCLQSYFQHCFVLGMCVRTTVMSSIYKKALTLSNLARKQYTIGETVNLMSVDSQKLMDATNYMQLVWSSVIQITLSIFFLWRELGPSILAGVGVMVLLIPVNGVLATKIRNIQVQNMKNKDKRLKIMNEILSGIKILKYFAWEPSFQEQVQGIRKKELKNLLRFGQLQSLLIFILQITPILVSVVTFSVYVLVDSANVLNAEKAFTSITLFNILRFPLSMLPMVTSSILQASVSVDRLERYLGGDDLDTSAIRRVSNFDKAVKFSEASFTWDPDLEATIQDVNLDIKPGQLVAVVGTVGSGKSSLVSAMLGEMENVHGHITIQGSTAYVPQQSWIQNGTIKDNILFGSEYNEKKYQQVLKACALLPDLEILPGGDMAEIGEKGINLSGGQKQRVSLARAAYQDADIYILDDPLSAVDAHVGKHIFNKVVGPNGLLAGKTRIFVTHGIHFLPQVDEIVVLGKGTILEKGSYRDLLDKKGVFARNWKTFMKHSGPEGEATVNNDSEAEDDDDGLIPTMEEIPEDAASLAMRRENSLRRTLSRSSRSSSRRGKSLKNSLKIKNVNVLKEKEKEVEGQKLIKKEFVETGKVKFSIYLKYLQAVGWWSILFIILFYGLNNVAFIGSNLWLSAWTSDSDNLNGTNNSSSHRDMRIGVFGALGLAQGICLLISTLWSIYACRNASKALHGQLLTNILRAPMRFFDTTPTGRIVNRFSGDISTVDDLLPQTLRSWMMCFFGIAGTLVMICMATPVFAIIIIPLSILYISVQVFYVATSRQLRRLDSVTKSPIYSHFSETVTGLPIIRAFEHQQRFLAWNEKQIDINQKCVFSWITSNRWLAIRLELVGNLVVFCSALLLVIYRKTLTGDVVGFVLSNALNITQTLNWLVRMTSEAETNIVAVERISEYINVENEAPWVTDKRPPADWPRHGEIQFNNYQVRYRPELDLVLKGITCNIKSGEKVGVVGRTGAGKSSLTNCLFRILESAGGQIIIDGIDVASIGLHDLRERLTIIPQDPILFSGSLRMNLDPFNKYSDEEVWRALELAHLRSFVSGLQLGLLSEVTEGGDNLSIGQRQLLCLGRAVLRKSKILVLDEATAAVDLETDSLIQTTIRKEFSQCTVITIAHRLHTIMDSDKIMVLDNGKIVEYGSPEELLSNRGSFYLMAKEAGIENVNHTEL
On to B1, for which the Km was 0.175 µM.
